Experimental data published in patent US20240270846A1 (published 2024).

B1: CE115HA000/GLS3000 F55H one-arm antibody (antibody, human IgG1, kappa, L234A L235A, N297A, name in Kabat numbering)
heavy: QVQLVESGGGVVQPGRSLRLSCAASGFTFSNAWMHWVRQAPGKGLEWVAQIKAKSNNYATYYAESVKGRFTISRDDSKNSLYLQMNSLKTEDTAVYYCRYVHYGAYYGVDAWGQGTTVTVSSASTKGPSVFPLAPSSKSTSGGTAALGCLVKDYFPEPVTVSWNSGALTSGVHTFPAVLQSSGLYSLSSVVTVPSSSLGTQTYICNVNHKPSNTKVDKKVEPKSCDKTHTCPPCPAPEAAGGPSVFLFPPKPKDTLMISRTPEVTCVVVDVSHEDPEVKFNWYVDGVEVHNAKTKPREEQYASTYRVVSVLTVLHQDWLNGKEYKCKVSNKALPAPIEKTISKAKGQPREPQVYTLPPSRCELTKNQVSLSCAVKGFYPSDIAVEWESNGQPENNYKTTPPVLDSDGSFFLVSKLTVDKSRWQQGNVFSCSVMHEALHNHYTQKSLSLSPDYKDDDDK
chain: EPKSSDKTHTCPPCPAPELLGGPSVFLFPPKPKDTLMISRTPEVTCVVVDVSHEDPEVKFNWYVDGVEVHNAKTKPREEQYNSTYRVVSVLTVLHQDWLNGKEYKCKVSNKALPAPIEKTISKAKGQPREPQVCTLPPSRDELTKNQVSLWCLVKGFYPSDIAVEWESNGQPENNYKTTPPVLDSDGSFFLYSKLTVDKSRWQQGNVFSCSVMHEALHNRYTQKSLSLSP
light: DIVMTQSPLSLPVTPGEPASISCRSSQSLVHSNRNTYLHWYQQKPGQAPRLLIYKVSNRHSGVPDRFSGSGSGTDFTLKISRVEAEDVGVYYCGQGTQVPYTFGQGTKLEIKRTVAAPSVFIFPPSDEQLKSGTASVVCLLNNFYPREAKVQWKVDNALQSGNSQESVTEQDSKDSTYSLSSTLTLSKADYEKHKVYACEVTHQGLSSPVTKSFNRGEC
notes: one-arm IgG1
B2: CE115HA000/GLS3000 F55L one-arm antibody (antibody, human IgG1, kappa, L234A L235A, N297A, name in Kabat numbering)
heavy: QVQLVESGGGVVQPGRSLRLSCAASGFTFSNAWMHWVRQAPGKGLEWVAQIKAKSNNYATYYAESVKGRFTISRDDSKNSLYLQMNSLKTEDTAVYYCRYVHYGAYYGVDAWGQGTTVTVSSASTKGPSVFPLAPSSKSTSGGTAALGCLVKDYFPEPVTVSWNSGALTSGVHTFPAVLQSSGLYSLSSVVTVPSSSLGTQTYICNVNHKPSNTKVDKKVEPKSCDKTHTCPPCPAPEAAGGPSVFLFPPKPKDTLMISRTPEVTCVVVDVSHEDPEVKFNWYVDGVEVHNAKTKPREEQYASTYRVVSVLTVLHQDWLNGKEYKCKVSNKALPAPIEKTISKAKGQPREPQVYTLPPSRCELTKNQVSLSCAVKGFYPSDIAVEWESNGQPENNYKTTPPVLDSDGSFFLVSKLTVDKSRWQQGNVFSCSVMHEALHNHYTQKSLSLSPDYKDDDDK
chain: EPKSSDKTHTCPPCPAPELLGGPSVFLFPPKPKDTLMISRTPEVTCVVVDVSHEDPEVKFNWYVDGVEVHNAKTKPREEQYNSTYRVVSVLTVLHQDWLNGKEYKCKVSNKALPAPIEKTISKAKGQPREPQVCTLPPSRDELTKNQVSLWCLVKGFYPSDIAVEWESNGQPENNYKTTPPVLDSDGSFFLYSKLTVDKSRWQQGNVFSCSVMHEALHNRYTQKSLSLSP
light: DIVMTQSPLSLPVTPGEPASISCRSSQSLVHSNRNTYLHWYQQKPGQAPRLLIYKVSNRLSGVPDRFSGSGSGTDFTLKISRVEAEDVGVYYCGQGTQVPYTFGQGTKLEIKRTVAAPSVFIFPPSDEQLKSGTASVVCLLNNFYPREAKVQWKVDNALQSGNSQESVTEQDSKDSTYSLSSTLTLSKADYEKHKVYACEVTHQGLSSPVTKSFNRGEC
notes: one-arm IgG1
B3: CE115HA000/GLS3000 F55M one-arm antibody (antibody, human IgG1, kappa, L234A L235A, N297A, name in Kabat numbering)
heavy: QVQLVESGGGVVQPGRSLRLSCAASGFTFSNAWMHWVRQAPGKGLEWVAQIKAKSNNYATYYAESVKGRFTISRDDSKNSLYLQMNSLKTEDTAVYYCRYVHYGAYYGVDAWGQGTTVTVSSASTKGPSVFPLAPSSKSTSGGTAALGCLVKDYFPEPVTVSWNSGALTSGVHTFPAVLQSSGLYSLSSVVTVPSSSLGTQTYICNVNHKPSNTKVDKKVEPKSCDKTHTCPPCPAPEAAGGPSVFLFPPKPKDTLMISRTPEVTCVVVDVSHEDPEVKFNWYVDGVEVHNAKTKPREEQYASTYRVVSVLTVLHQDWLNGKEYKCKVSNKALPAPIEKTISKAKGQPREPQVYTLPPSRCELTKNQVSLSCAVKGFYPSDIAVEWESNGQPENNYKTTPPVLDSDGSFFLVSKLTVDKSRWQQGNVFSCSVMHEALHNHYTQKSLSLSPDYKDDDDK
chain: EPKSSDKTHTCPPCPAPELLGGPSVFLFPPKPKDTLMISRTPEVTCVVVDVSHEDPEVKFNWYVDGVEVHNAKTKPREEQYNSTYRVVSVLTVLHQDWLNGKEYKCKVSNKALPAPIEKTISKAKGQPREPQVCTLPPSRDELTKNQVSLWCLVKGFYPSDIAVEWESNGQPENNYKTTPPVLDSDGSFFLYSKLTVDKSRWQQGNVFSCSVMHEALHNRYTQKSLSLSP
light: DIVMTQSPLSLPVTPGEPASISCRSSQSLVHSNRNTYLHWYQQKPGQAPRLLIYKVSNRMSGVPDRFSGSGSGTDFTLKISRVEAEDVGVYYCGQGTQVPYTFGQGTKLEIKRTVAAPSVFIFPPSDEQLKSGTASVVCLLNNFYPREAKVQWKVDNALQSGNSQESVTEQDSKDSTYSLSSTLTLSKADYEKHKVYACEVTHQGLSSPVTKSFNRGEC
notes: one-arm IgG1
B4: CE115HA000/GLS3000 F55I one-arm antibody (antibody, human IgG1, kappa, L234A L235A, N297A, name in Kabat numbering)
heavy: QVQLVESGGGVVQPGRSLRLSCAASGFTFSNAWMHWVRQAPGKGLEWVAQIKAKSNNYATYYAESVKGRFTISRDDSKNSLYLQMNSLKTEDTAVYYCRYVHYGAYYGVDAWGQGTTVTVSSASTKGPSVFPLAPSSKSTSGGTAALGCLVKDYFPEPVTVSWNSGALTSGVHTFPAVLQSSGLYSLSSVVTVPSSSLGTQTYICNVNHKPSNTKVDKKVEPKSCDKTHTCPPCPAPEAAGGPSVFLFPPKPKDTLMISRTPEVTCVVVDVSHEDPEVKFNWYVDGVEVHNAKTKPREEQYASTYRVVSVLTVLHQDWLNGKEYKCKVSNKALPAPIEKTISKAKGQPREPQVYTLPPSRCELTKNQVSLSCAVKGFYPSDIAVEWESNGQPENNYKTTPPVLDSDGSFFLVSKLTVDKSRWQQGNVFSCSVMHEALHNHYTQKSLSLSPDYKDDDDK
chain: EPKSSDKTHTCPPCPAPELLGGPSVFLFPPKPKDTLMISRTPEVTCVVVDVSHEDPEVKFNWYVDGVEVHNAKTKPREEQYNSTYRVVSVLTVLHQDWLNGKEYKCKVSNKALPAPIEKTISKAKGQPREPQVCTLPPSRDELTKNQVSLWCLVKGFYPSDIAVEWESNGQPENNYKTTPPVLDSDGSFFLYSKLTVDKSRWQQGNVFSCSVMHEALHNRYTQKSLSLSP
light: DIVMTQSPLSLPVTPGEPASISCRSSQSLVHSNRNTYLHWYQQKPGQAPRLLIYKVSNRISGVPDRFSGSGSGTDFTLKISRVEAEDVGVYYCGQGTQVPYTFGQGTKLEIKRTVAAPSVFIFPPSDEQLKSGTASVVCLLNNFYPREAKVQWKVDNALQSGNSQESVTEQDSKDSTYSLSSTLTLSKADYEKHKVYACEVTHQGLSSPVTKSFNRGEC
notes: one-arm IgG1
B5: CE115HA000/GLS3000 F55K one-arm antibody (antibody, human IgG1, kappa, L234A L235A, N297A, name in Kabat numbering)
heavy: QVQLVESGGGVVQPGRSLRLSCAASGFTFSNAWMHWVRQAPGKGLEWVAQIKAKSNNYATYYAESVKGRFTISRDDSKNSLYLQMNSLKTEDTAVYYCRYVHYGAYYGVDAWGQGTTVTVSSASTKGPSVFPLAPSSKSTSGGTAALGCLVKDYFPEPVTVSWNSGALTSGVHTFPAVLQSSGLYSLSSVVTVPSSSLGTQTYICNVNHKPSNTKVDKKVEPKSCDKTHTCPPCPAPEAAGGPSVFLFPPKPKDTLMISRTPEVTCVVVDVSHEDPEVKFNWYVDGVEVHNAKTKPREEQYASTYRVVSVLTVLHQDWLNGKEYKCKVSNKALPAPIEKTISKAKGQPREPQVYTLPPSRCELTKNQVSLSCAVKGFYPSDIAVEWESNGQPENNYKTTPPVLDSDGSFFLVSKLTVDKSRWQQGNVFSCSVMHEALHNHYTQKSLSLSPDYKDDDDK
chain: EPKSSDKTHTCPPCPAPELLGGPSVFLFPPKPKDTLMISRTPEVTCVVVDVSHEDPEVKFNWYVDGVEVHNAKTKPREEQYNSTYRVVSVLTVLHQDWLNGKEYKCKVSNKALPAPIEKTISKAKGQPREPQVCTLPPSRDELTKNQVSLWCLVKGFYPSDIAVEWESNGQPENNYKTTPPVLDSDGSFFLYSKLTVDKSRWQQGNVFSCSVMHEALHNRYTQKSLSLSP
light: DIVMTQSPLSLPVTPGEPASISCRSSQSLVHSNRNTYLHWYQQKPGQAPRLLIYKVSNRKSGVPDRFSGSGSGTDFTLKISRVEAEDVGVYYCGQGTQVPYTFGQGTKLEIKRTVAAPSVFIFPPSDEQLKSGTASVVCLLNNFYPREAKVQWKVDNALQSGNSQESVTEQDSKDSTYSLSSTLTLSKADYEKHKVYACEVTHQGLSSPVTKSFNRGEC
notes: one-arm IgG1

Target: T1, CD3 epsilon homodimer protein (UniProt P07766 23-126)
T1 construct: also called CD3 (CD3 epsilon)
Test: SPR (Biacore T200), CD3e homodimer on CM4 chip, antibody as analyte; KD ratio vs unaltered GLS3000;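 note: CD3 epsilon homodimer amine-coupled to the sensor surface, antibodies injected as analyte at 25 °C with HBS-EP+ running buffer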

T1 sequence (P07766 23-126): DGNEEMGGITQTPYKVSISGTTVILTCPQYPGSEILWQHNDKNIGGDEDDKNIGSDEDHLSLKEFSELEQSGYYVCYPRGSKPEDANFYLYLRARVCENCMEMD

Q: For B1, which “KD ratio to GLS3000” value is on record?
A: 1.02 ratio

Q: B2 was tested. Which “KD ratio to GLS3000” value did it give?
A: 1.43 ratio

Q: With B3 as the binder, how does the “KD ratio to GLS3000” value read?
A: 1.29 ratio

Q: For B4, which “KD ratio to GLS3000” value is on record?
A: 1.28 ratio

Q: For B5, which “KD ratio to GLS3000” value is on record?
A: 1.22 ratio
